Test results taken from the supplement of paper PMC9732359.
± gives the uncertainty stated by the source.

Assay: protein stability index of a GFP-peptide fusion (yeast GPS) (PSI 1-4); higher = more stable; sorted into four equal gates, so the index is relative within each strain
Outline: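 Plasmids in a pooled yeast library fused tiled 17-residue yeast protein peptides downstream of GFP and also expressed Cherry. Mid-log cultures grown without leucine were sorted into four equal gates by GFP/Cherry fluorescence ratio. Each gate's plasmids were PCR-amplified and Illumina-sequenced, and reads were matched to strains by barcodes. The protein stability index is derived by multiplying each gate's read frequency by its gate number and summing the results.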

| Sequence | protein stability index (doa10∆) | protein stability index (pdr5∆) | protein stability index (san1∆) | protein stability index (ubr1∆) |
| --- | --- | --- | --- | --- |
| ANNIVNIVSDAGANDTS [GRR1] | 3.2 ± 0.12 | 3.14 ± 0.074 | 3.64 ± 0.1 | 3.13 ± 0.094 |
| THLHEALDIVCSDFVKI [NUT1] | 2.28 ± 0.089 | 2.48 ± 0.063 | 2.15 ± 0.11 | 1.92 ± 0.078 |
| TDDYFEELRDLYQTYHV [FAS1] | 3.09 ± 0.22 | 2.69 ± 0.076 | 3.33 ± 0.15 | 3.37 ± 0.11 |
| IGIAGAHRVRDLMDEEL [SKI6] | 3.38 ± 0.13 | 3.36 ± 0.11 | 2.94 ± 0.088 | 3.07 ± 0.13 |
| MFANMKVLGVKDMSPIL [LRP1] | 1.84 ± 0.069 | 1.52 ± 0.046 | 1.41 ± 0.072 | 1.46 ± 0.047 |
| LIQDLLHRLTPKNVKGE [RPN1] | 3.44 ± 0.25 | 3.27 ± 0.11 | 3.51 ± 0.21 | 3.01 ± 0.14 |
| YQKKQYKDSLALINDLL [RPN6] | 2.4 ± 0.26 | 2.68 ± 0.19 | 1.82 ± 0.21 | 2.86 ± 0.13 |
| DSLSGAVIAAIMQEAGL [RPT3] |  | 1.14 ± 0.18 |  |  |
| NSSRFSDPMLQRTATLC [YCS4] | 2.81 ± 0.12 | 2.98 ± 0.093 | 3.21 ± 0.093 | 3.02 ± 0.078 |
| SKVIIKFLQVMQKHGYI [RPS22A] | 1.95 ± 0.038 | 1.84 ± 0.038 | 1.76 ± 0.066 | 2 ± 0.039 |
| PSPKKVAIDQDKITLHD [SIR4] | 2.36 ± 0.064 | 2.53 ± 0.064 | 2.27 ± 0.079 | 2.88 ± 0.05 |
| LCLTEFENCYLEGNDIH [FAS1] | 3.02 ± 0.089 | 3.26 ± 0.076 | 3.2 ± 0.13 | 2.95 ± 0.1 |
| HVIQIPLNKPLLTEELA [TAF14] | 2.2 ± 0.053 | 2.39 ± 0.037 | 2.49 ± 0.053 | 2.32 ± 0.039 |
| RTAKAYLKVSEEEIKKF [PRP8] | 2.98 ± 0.057 | 3.11 ± 0.075 | 3.12 ± 0.053 | 3.26 ± 0.049 |
| DTNSSKPKNTKENLSKS [SIR4] | 1.33 ± 0.21 | 1.56 ± 0.12 | 2.05 ± 0.15 |  |
| QTYINQELGFCELLKLT [SSN2] | 2.81 ± 0.24 | 2.45 ± 0.12 | 2.39 ± 0.17 | 2.67 ± 0.093 |
| KITAKTQHEEEEEQDTG [IRR1] | 2.69 ± 0.11 | 3.16 ± 0.13 | 2.82 ± 0.22 |  |
| LELPLCPYCYKKRREYF [SIR2] | 2.46 ± 0.053 | 2.06 ± 0.057 | 1.95 ± 0.07 | 1.98 ± 0.077 |
| AIRRDARYNWICDPVHK [RPL15A] | 2.71 ± 0.1 | 3.37 ± 0.12 | 3.25 ± 0.11 | 3.18 ± 0.076 |
| KQEQEEKIKSKKINRRN [YCG1] | 3.4 ± 0.18 | 2.87 ± 0.17 | 2.75 ± 0.29 | 3.22 ± 0.15 |
| KTCAEVIGGNSLFHIVV [SMC3] | 3.05 ± 0.11 | 3.1 ± 0.1 | 2.96 ± 0.071 | 3.01 ± 0.089 |
| AQKRVVSYMMPSLYRLL [SRB8] | 1.18 ± 0.11 | 1.19 ± 0.067 | 1.1 ± 0.12 | 1.29 ± 0.053 |
| VLSALEGKSVDELITEG [RPP2A] |  | 3.23 ± 0.15 | 3.41 ± 0.073 | 3.45 ± 0.28 |
| YQSLKQIVQVLKQPPFQ [SSN8] | 1.43 ± 0.082 | 2.22 ± 0.11 |  | 1.46 ± 0.097 |
| TTQGGLTSVTRHGFNRS [RPO21] | 3.14 ± 0.088 | 3.04 ± 0.08 | 3.15 ± 0.077 | 3.26 ± 0.071 |
| MDFFNLNNNNNNNNTTT [SWI1] | 2.97 ± 0.072 | 3.33 ± 0.081 | 2.53 ± 0.13 | 2.35 ± 0.067 |
| LYSVKFAPAHLGLKLAC [YGL100W/SEH1] | 2.73 ± 0.074 | 1.98 ± 0.049 | 2.72 ± 0.072 | 2.79 ± 0.046 |

| Sequence | protein stability index (doa10∆) | protein stability index (pdr5∆) | protein stability index (san1∆) | protein stability index (ubr1∆) |
| --- | --- | --- | --- | --- |
| LSEYDAIQKKDNKDKEG [YOR098C/NUP1] | 3.35 ± 0.13 | 3.33 ± 0.097 | 3.38 ± 0.11 | 3.38 ± 0.067 |
| IIVFGYPESISNELIEH [YDL088C/ASM4] | 2.12 ± 0.066 | 2.78 ± 0.049 | 2.63 ± 0.058 | 2.75 ± 0.054 |
| EGNEKLAAVPAAGPASA [RPP2A] | 2.06 ± 0.061 | 2.23 ± 0.063 | 2.17 ± 0.09 | 2.79 ± 0.063 |
| ESKFILEALRQNYRLDG [RRP45] |  |  | 2.95 ± 0.28 |  |
| DLLHPTAASEARKHKLK [RPS27A] | 2.29 ± 0.1 | 3.11 ± 0.068 | 2.53 ± 0.11 | 3.07 ± 0.072 |
| YGYWFDCRMGNFYIQYD [AAR2] | 2.51 ± 0.048 | 2.08 ± 0.048 | 1.93 ± 0.081 | 2.49 ± 0.034 |
| IKFFWNNTHVGRQFCNR [YLR018C/POM34] |  | 1.68 ± 0.14 | 1.74 ± 0.27 | 1.9 ± 0.1 |
| ISFAIYSALNSTYLPKL [RRP42] | 2.1 ± 0.054 | 2.3 ± 0.048 | 2.05 ± 0.058 | 2.34 ± 0.039 |
| TDCKFIRVSGAELVQKY [RPT6] | 3.01 ± 0.14 | 3.24 ± 0.16 | 3.16 ± 0.15 | 2.93 ± 0.11 |
| ENAYKSENAPSASSKEF [YAR002W/NUP60] | 2.18 ± 0.066 | 1.86 ± 0.062 | 2.15 ± 0.078 | 2.15 ± 0.074 |
| KFIALCEQQPSQEREFS [SIN4] | 2.78 ± 0.055 | 2.82 ± 0.063 | 2.67 ± 0.088 | 2.79 ± 0.056 |
| DKLKDIVGQTSRTVTPA [ITC1] | 3.22 ± 0.059 | 3.13 ± 0.046 | 3.19 ± 0.047 | 2.96 ± 0.052 |
| GEFSGKNFSPTKRVEKP [RRP6] | 2.37 ± 0.089 | 2.47 ± 0.094 | 2.54 ± 0.078 | 3.22 ± 0.059 |
| IGLPRHSLAYLLENFAN [RRP6] | 1.67 ± 0.04 | 1.78 ± 0.041 | 1.64 ± 0.072 | 1.87 ± 0.025 |
| KSLVQYIELLPNADDIR [DIS3] | 2.7 ± 0.15 | 2.75 ± 0.077 | 2.47 ± 0.069 | 2.62 ± 0.064 |
| ELLLTTLSVSHGINLQN [SSN2] | 1.89 ± 0.044 | 2.04 ± 0.043 | 1.76 ± 0.081 | 2.19 ± 0.059 |
| YMDCLLYDLRASYAKIE [SNU114] | 1.84 ± 0.074 | 2.32 ± 0.076 | 1.81 ± 0.095 | 1.74 ± 0.092 |
| VAKVDEEGRAIPGEYIT [RPS21B] | 2.5 ± 0.095 | 2.52 ± 0.12 | 2.44 ± 0.1 | 2.77 ± 0.065 |
| PNFNVEIMQQKFPATNV [ECM29] | 2.25 ± 0.26 | 3 ± 0.2 |  | 2.86 ± 0.17 |
| IYNSASKASMQKEQNVN [YCS4] | 1.65 ± 0.13 | 2.11 ± 0.13 | 1.58 ± 0.22 | 2.17 ± 0.077 |
| ELTIIKNPRVTKEYLVQ [CSN9] |  | 3 ± 0.3 | 3.15 ± 0.11 | 3.35 ± 0.091 |
| LSAEYLVILKPDLNIDR [SIN4] | 2.97 ± 0.063 | 3.1 ± 0.1 | 2.97 ± 0.058 | 2.94 ± 0.045 |
| VVFTRLVQRCWQWGNDR [CSN12] | 1.42 ± 0.092 | 1.4 ± 0.08 | 1.58 ± 0.14 | 1.52 ± 0.058 |
| SLLLKNYLNDMHDSNLQ [SKP1] | 2.31 ± 0.093 | 2.48 ± 0.05 | 1.81 ± 0.093 | 2.08 ± 0.05 |
| KALPIRRDDEVLVVRGS [RPL26A] | 3.06 ± 0.18 | 3.05 ± 0.12 | 3.23 ± 0.13 | 3.32 ± 0.15 |
| MSLTTAAPLLALLRENQ [RPN2] | 2.6 ± 0.19 | 3.31 ± 0.25 | 2.8 ± 0.12 | 3.05 ± 0.08 |
| TPPVVVVGVVGYVETPR [RPL3] | 1.81 ± 0.086 | 2.33 ± 0.068 | 1.46 ± 0.072 | 2.86 ± 0.17 |
